Results as given in article PMC12503259, “Establishment of an in vivo analytical method for detecting total anti-UFH activity and pharmacokinetic study in PS and R15 in rats” (PLOS One, 2025).

Key:
[1] = Pharmacokinetic study in Wistar rats, total anti-heparin activity in plasma (fixed UFH added, residual UFH by anti-FXa kit); format: in vivo
Experimental: (§1) Processing of Plasma Samples: 100 μL of the unknown plasma sample was added to 500 μL of 75% methanol (methanol: water = 75:25, v/v) and vortex-mixed for 5 seconds. The mixture was then centrifuged at 12,000 r/min for 10 minutes at 25°C. The supernatant (500 μL) was collected and dried under nitrogen at 60°C. Subsequently, UFH (0.14 U·mL^-1 for PS and 0.15 U·mL^-1 for R15; 120 μL) was added, and the mixture was vigorously shaken at room temperature for 10 minutes. The residual UFH content was measured using the Heparin Anti-FXa assay kit.
(§2) The detailed procedure is as follows: Accurately pipette 40 μL of the sample into a 96-well plate. Place the plate in a microplate shaker. Using a multichannel pipette, add 40 μL of reagent R1 and mix by shaking. Incubate at 37 °C for exactly 3 minutes (start timing upon addition of R1; at 50 seconds, begin shaking with the microplate shaker for 1 minute, then place the plate in the incubator). Remove the 96-well plate from the incubator and place it on the open microplate shaker. Using a multichannel pipette, add 40 μL of reagent R2 to each well and incubate at 37 °C for 6 minutes (after adding R2, at 3 minutes and 50 seconds, open the microplate shaker and shake for 4 minutes, then return the plate to the incubator). Remove the 96-well plate from the incubator and place it on the open microplate shaker. Quickly add 40 μL of reagent R3 using a multichannel pipette and shake until 9 minutes and 10 seconds. At 9 minutes and 30 seconds, add 80 μL of 20% acetic acid to each well to terminate the reaction. Measure the absorbance at 405 nm using a microplate reader (Multiskan FC, Thermo Fisher US).
Eight Wistar rats (approximately 250 g; equally divided by sex and acclimatized for 1 week in the animal facility) were used for profiling pharmacokinetics of PS. Each rat was cannulated in carotid artery to collect blood the day before the experiment. PS was injected through the tail vein and blood samples were collected at 0 min, 1 min, 3 min, 5 min, 7 min, 9 min, 11 min, 15 min, 20 min, 30 min, 60 min and 120 min in a tube containing 4% sodium citrate. Plasma was achieved by centrifugation at 8000 r/min for 10 min, and stored in the refrigerator at −80°C. […]
During the analysis of actual samples, a standard curve and a series of calibration standards were established for each analytical batch to determine the concentration of PS and R15 in plasma. The concentrations were plotted on the X-axis, and the data were fitted using Equation (3).
Weighted least squares regression was used for the calculations. The Optical Density (OD) values of the unknown biological samples were substituted into the equation to determine the concentration of PS and R15, respectively.
Pharmacokinetic parameters of PS were calculated by WinNonlin 6.4, and all data were processed by Microsoft Excel 2013 and GraphPad Prism 8.3.

[2] = Stability in rat plasma at room temperature for 30 min; format: in vitro ADME; settings: for RE%: plasma sample, room temperature (25℃) for 30 min, n=6; for Measured concentration after storage, Mean ± SD / RE (%) versus nominal concentration: rat plasma, room temperature (25°C ± 1°C) for 30 min; for Measured concentration after storage, Mean ± SD: n = 6
Experimental: as §1, §2
(§3) Two concentration levels (low and high QC) were evaluated for validation of storage stability and freeze/thaw stability. Two concentration levels of PS and R15 (low and high QC) in blank rat plasma were prepared (n = 6), respectively. Samples in rats’ plasma were determined after storage at room temperature (25°C ± 1°C) for 30 min. Samples in rats’ plasma were under three freeze (−80°C)-thaw (25°C) cycles. Stock solution of PS and R15 were stored at 4°C for a week. All the samples mentioned above were processed by calibration curves with adequate QC samples diluted from newly prepared stock solution of PS and R15, followed by procedure of sample determination (see “Sample Preparation”), respectively.

[3] = Stability of stock solution at 4°C for a week; format: physicochemical; settings: for Measured concentration after storage, Mean ± SD: stock solution (10 mg·mL^-1 in deionized water) stored 1 week at 4°C, n = 6; for Mean determined concentration, stability of stock solution / RE%: stock solution for 1 week; for Mean determined concentration, stability of stock solution: mean of n=6; for RE%: n=6; for RE (%) versus nominal concentration: stock solution stored 1 week at 4°C
Experimental: Preparation of Stock Solutions: Appropriate amounts of PS and R15 powders were accurately weighed and dissolved in deionized water to obtain stock solutions at 10 mg·mL^-1, respectively. This solution was stored in a refrigerator at 4 °C and replaced regularly.
as §3

[4] = PS 300 U/kg iv, rat 1# (male), single animal
[5] = PS 300 U/kg iv, rat 2# (male), single animal
[6] = PS 300 U/kg iv, rat 3# (male), single animal, not included in mean
[7] = PS 300 U/kg iv, rat 6# (male), single animal
[8] = PS 300 U/kg iv, rat 11# (female), single animal
[9] = PS 300 U/kg iv, rat 12# (female), single animal
[10] = PS 300 U/kg iv, rat 13# (female), single animal
[11] = PS 300 U/kg iv, rat 14# (female), single animal, not included in mean
[12] = PS 300 U·kg^-1 single iv tail vein, Wistar rats, Total (male and female), mean ± SD, n = 6, rats 3# and 14# excluded
[13] = PS 300 U·kg^-1 single iv tail vein, Wistar rats, female, mean ± SD, rat 14# excluded
[14] = PS 300 U·kg^-1 single iv tail vein, Wistar rats, male, mean ± SD, rat 3# excluded

## Protamine sulfate [PS]
[1]; PS 300 U/kg iv, 1 min, Mean±SD
  plasma concentration: 12190 ± 1890 ng/mL
[1]; PS 300 U/kg iv, 3 min, Mean±SD
  plasma concentration: 3410 ± 1620 ng/mL
[1]; PS 300 U/kg iv, 5 min, Mean±SD
  plasma concentration: 1760 ± 440 ng/mL
[1]; PS 300 U/kg iv, 7 min, Mean±SD
  plasma concentration: 910 ± 290 ng/mL
[1]; PS 300 U/kg iv, 9 min, Mean±SD
  plasma concentration: 820 ± 260 ng/mL
[1]; PS 300 U/kg iv, 11 min, Mean±SD
  plasma concentration: 670 ± 210 ng/mL
[1]; PS 300 U/kg iv, 15 min, Mean±SD
  plasma concentration: 550 ± 90 ng/mL
[1]; PS 300 U/kg iv, 20 min, Mean±SD column (one rat)
  plasma concentration: 430 ng/mL
[1]; PS 300 U/kg iv, 20 min, rat 6#
  plasma concentration: 430 ng/mL
[1]; [4]
  AUC: 35.86 min･µg･mL^-1
  CL: 53.74 mL･min^-1･kg^-1
  Cmax: 12.10 µg･mL^-1
  MRT: 2.51 min
  T1/2: 1.72 min
  Vd: 134 mL･kg^-1
[1]; [5]
  AUC: 42.97 min･µg･mL^-1
  CL: 41.70 mL･min^-1･kg^-1
  Cmax: 15.14 µg･mL^-1
  MRT: 3.20 min
  T1/2: 7.06 min
  Vd: 425 mL･kg^-1
[1]; [6]
  AUC: 17.83 min･µg･mL^-1
  Cmax: 11.17 µg･mL^-1
  MRT: 1.12 min
[1]; [7]
  AUC: 45.62 min･µg･mL^-1
  CL: 39.21 mL･min^-1･kg^-1
  Cmax: 14.12 µg･mL^-1
  MRT: 4.40 min
  T1/2: 8.65 min
  Vd: 489 mL･kg^-1
[1]; [8]
  AUC: 29.16 min･µg･mL^-1
  CL: 66.07 mL･min^-1･kg^-1
  Cmax: 12.55 µg･mL^-1
  MRT: 2.12 min
  T1/2: 1.64 min
  Vd: 156 mL･kg^-1
[1]; [9]
  AUC: 33.06 min･µg･mL^-1
  CL: 55.19 mL･min^-1･kg^-1
  Cmax: 12.70 µg･mL^-1
  MRT: 2.49 min
  T1/2: 2.18 min
  Vd: 173 mL･kg^-1
[1]; [10]
  AUC: 28.68 min･µg･mL^-1
  CL: 66.01 mL･min^-1･kg^-1
  Cmax: 9.40 µg･mL^-1
  MRT: 2.97 min
  T1/2: 2.41 min
  Vd: 229 mL･kg^-1
[1]; [11]
  AUC: 18.80 min･µg･mL^-1
  CL: 97.21 mL･min^-1･kg^-1
  Cmax: 10.34 µg･mL^-1
  MRT: 1.46 min
  T1/2: 1.20 min
  Vd: 168 mL･kg^-1
[1]; PS 300 U·kg^-1 single iv tail vein, Wistar rats, Total (male and female), at 1 min, mean ± SD, n = 6, rats 3# and 14# excluded
  Cmax: 12.67 ± 1.96 µg/mL
[1]; [12]
  AUC: 35.89 ± 7.07 µg·min/mL
  CL: 53.65 ± 11.49 mL/min/kg
  MRT: 2.95 ± 0.81 min
  T1/2: 3.94 ± 3.08 min
  Vd: 268 ± 151 mL/kg
[1]; [13]
  AUC: 30.30 ± 2.40 µg·min/mL
  CL: 62.42 ± 6.26 mL/min/kg
  Cmax: 11.55 ± 1.86 µg/mL
  MRT: 2.53 ± 0.43 min
  T1/2: 2.08 ± 0.40 min
  Vd: 186 ± 38 mL/kg
[1]; [14]
  AUC: 41.48 ± 5.05 µg·min/mL
  CL: 44.88 ± 7.77 mL/min/kg
  Cmax: 13.79 ± 1.55 µg/mL
  MRT: 3.37 ± 0.96 min
  T1/2: 5.81 ± 3.63 min
  Vd: 349 ± 189 mL/kg
[2]; nominal 0.70 μg/mL
  RE%: 8.10%
[2]; nominal 1.50 μg/mL
  RE%: 4.44%
[2]; nominal 0.7 μg·mL^-1, anti-FXa read-out at 405 nm
  Measured concentration after storage, Mean ± SD: 0.76 ± 0.01 µg/mL
[2]; nominal 0.7 μg·mL^-1, n = 6
  RE (%) versus nominal concentration: 8.10%
[2]; nominal 1.5 μg·mL^-1, anti-FXa read-out at 405 nm
  Measured concentration after storage, Mean ± SD: 1.57 ± 0.09 µg/mL
[2]; nominal 1.5 μg·mL^-1, n = 6
  RE (%) versus nominal concentration: 4.44%
[3]; then diluted to nominal 0.7 μg·mL^-1, anti-FXa read-out
  Measured concentration after storage, Mean ± SD: 0.59 ± 0.02 µg/mL
[3]; then diluted to nominal 1.5 μg·mL^-1, anti-FXa read-out
  Measured concentration after storage, Mean ± SD: 1.44 ± 0.04 µg/mL
[3]; nominal 0.7 μg/mL
  Mean determined concentration, stability of stock solution: 0.59 µg/mL
  RE%: -15.2%
[3]; nominal 1.5 μg/mL
  Mean determined concentration, stability of stock solution: 1.44 µg/mL
  RE%: -4.1%
[3]; nominal 0.7 μg·mL^-1, n = 6
  RE (%) versus nominal concentration: −15.2%
[3]; nominal 1.5 μg·mL^-1, n = 6
  RE (%) versus nominal concentration: −4.1%
